According to patent US20050182242A1, “Global analysis of protein activities using proteome chips” (priority 2001, published 2005):

B1: PCL6: yeast GST-HisX6 fusion protein on proteome chip (protein, UniProt P40038 1-420, looked up)
PHO85 cyclin-6: MSIKGDSPSSTNASSSPKSTYSIQSDDKANLGSGNVDIRTDNSQQDSNNRRDIVVVTRVASEETLESQSSTSSMGIRPESSFNYEDASNQARVEMNNRVHGSNMNTINKYYPVRFPKNNERQLSDTNNLNEKVQGTHTVQSSTQEDKILDGDTSNSQVTPSLNIAEFPTDKLLKMLTALLTKIIKSNDRTAATNPSLTQEIENGRCLALSDNEKKYLSPVLGFRGKHVPQIGLDQYFQRIQKYCPTTNDVFLSLLVYFDRISKRCNSVTTTPKTNTAKHESPSNESSLDKANRGADKMSACNSNENNENDDSDDENTGVQRDSRAHPQMFVMDSHNIHRLIIAGITVSTKFLSDFFYSNSRYSRVGGISLQELNHLELQFLVLCDFELLISVNELQRYADLLYRFWNNAKAQSQALVTGM
modifications: GST-His6 fusion tag
notes: yeast GST-HisX6 fusion protein on proteome chip
B2: SAS3: yeast GST-HisX6 fusion protein on proteome chip (protein, UniProt P34218 1-831, looked up)
Histone acetyltransferase SAS3: MSLTANDESPKPKKNALLKNLEIDDLIHSQFVRSDTNGHRTTRRLFNSDASISHRIRGSVRSDKGLNKIKKGLISQQSKLASENSSQNIVNRDNKMGAVSFPIIEPNIEVSEELKVRIKYDSIKFFNFERLISKSSVIAPLVNKNITSSGPLIGFQRRVNRLKQTWDLATENMEYPYSSDNTPFRDNDSWQWYVPYGGTIKKMKDFSTKRTLPTWEDKIKFLTFLENSKSATYINGNVSLCNHNETDQENEDRKKRKGKVPRIKNKVWFSQIEYIVLRNYEIKPWYTSPFPEHINQNKMVFICEFCLKYMTSRYTFYRHQLKCLTFKPPGNEIYRDGKLSVWEIDGRENVLYCQNLCLLAKCFINSKTLYYDVEPFIFYILTEREDTENHPYQNAAKFHFVGYFSKEKFNSNDYNLSCILTLPIYQRKGYGQFLMEFSYLLSRKESKFGTPEKPLSDLGLLTYRTFWKIKCAEVLLKLRDSARRRSNNKNEDTFQQVSLNDIAKLTGMIPTDVVFGLEQLQVLYRHKTRSLSSLDDFNYIIKIDSWNRIENIYKTWSSKNYPRVKYDKLLWEPIILGPSFGINGMMNLEPTALADEALTNETMAPVISNNTHIENYNNSRAHNKRRRRRRRSSEHKTSKLHVNNIIEPEVPATDFFEDTVSSLTEYMCDYKNTNNDRLIYQAEKRVLESIHDRKGIPRSKFSTETHWELCFTIKNSETPLGNHAARRNDTGISSLEQDEVENDVDTELYVGENAKEDEDEDEDFTLDDDIEDEQISEENDEEEDTYEEDSDDDEDGKRKGQEQDENDIESHIRKERVRKRRKITLIEDDEE
modifications: GST-His6 tag
notes: as for B1
B3: VMA13: yeast GST-HisX6 fusion protein on proteome chip (protein, UniProt P41807 2-478, looked up)
V-type proton ATPase subunit H: GATKILMDSTHFNEIRSIIRSRSVAWDALARSEELSEIDASTAKALESILVKKNIGDGLSSSNNAHSGFKVNGKTLIPLIHLLSTSDNEDCKKSVQNLIAELLSSDKYGDDTVKFFQEDPKQLEQLFDVSLKGDFQTVLISGFNVVSLLVQNGLHNVKLVEKLLKNNNLINILQNIEQMDTCYVCIRLLQELAVIPEYRDVIWLHEKKFMPTLFKILQRATDSQLATRIVATNSNHLGIQLQYHSLLLIWLLTFNPVFANELVQKYLSDFLDLLKLVKITIKEKVSRLCISIILQCCSTRVKQHKKVIKQLLLLGNALPTVQSLSERKYSDEELRQDISNLKEILENEYQELTSFDEYVAELDSKLLCWSPPHVDNGFWSDNIDEFKKDNYKIFRQLIELLQAKVRNGDVNAKQEKIIIQVALNDITHVVELLPESIDVLDKTGGKADIMELLNHSDSRVKYEALKATQAIIGYTFK
modifications: GST-His6 tag
notes: as for B1
B4: APA2: yeast GST-HisX6 fusion protein on proteome chip (protein, UniProt P22108 1-325, looked up)
Diadenosine …: MIEENLKQKIHDKFVAAKKNGHLKVTHAESKKLKDPQTTTQYWVTFAPSLALKPDANKNSDSKAEDPFANPDEELVVTEDLNGDGEYKLLLNKFPVVPEHSLLVTSEFKDQRSALTPSDLMTAYNVLCSLQGDKDDDVTCERYLVFYNCGPHSGSSQDHKHLQIMQMPEKFIPFQDVLCNGKDHFLPTFNAEPLQDDKVSFAHFVLPLPESSDQVDEDLLAMCYVSLMQRALTFFQDWTNESPELTKSYNVLLTKKWICVVPRSHAKSGPPLMLNINSTGYCGMILVKDREKLENLTEDPHLVDKSLLQCGFPNTAGQKPTEYHY
modifications: GST-His6 fusion tag
notes: as for B1
B5: TFB3: yeast GST-HisX6 fusion protein on proteome chip (protein, UniProt Q03290 1-321, looked up)
RNA polymerase II …: MLMDEYEENKDMCPICKTDRYLSPDVKFLVNPECYHRICESCVDRIFSLGPAQCPYKGCDKILRKNKFKTQIFDDVEVEKEVDIRKRVFNVFNKTIDDFNGDLVEYNKYLEEVEDIIYKLDHGIDVAKTEEKLRTYEELNKQLIMNNLERSRTEIESFEQRQKFEKEMKLKKRLLERQIEEEERMNKEWTKKEIVNRLSTTTQDINETIEGVKNTVKLKKSSARRKLEELNRVLKNNPYFNSNVNVQNSRLKDAVPFTPFNGDREAHPRFTLKGSVYNDPFIKDLEHRKEFIASGFNTNYAYERVLTEAFMGLGCVISEEL
modifications: GST-His6 tag
notes: as for B1
B6: GPA2: yeast GST-HisX6 fusion protein on proteome chip (protein, UniProt P10823 2-449, looked up)
Guanine nucleotide-binding …: GLCASSEKNGSTPDTQTASAGSDNVGKAKVPPKQEPQKTVRTVNTANQQEKQQQRQQQPSPHNVKDRKEQNGSINNAISPTATANTSGSQQINIDSALRDRSSNVAAQPSLSDASSGSNDKELKVLLLGAGESGKSTVLQQLKILHQNGFSEQEIKEYIPLIYQNLLEIGRNLIQARTRFNVNLEPECELTQQDLSRTMSYEMPNNYTGQFPEDIAGVISTLWALPSTQDLVNGPNASKFYLMDSTPYFMENFTRITSPNYRPTQQDILRSRQMTSGIFDTVIDMGSDIKMHIYDVGGQRSERKKWIHCFDNVTLVIFCVSLSEYDQTLMEDKNQNRFQESLVLFDNIVNSRWFARTSVVLFLNKIDLFAEKLSKVPMENYFPDYTGGSDINKAAKYILWRFVQLNRANLSIYPHVTQATDTSNIRLVFAAIKETILENTLKDSGVLQ
modifications: GST-His6 tag
notes: as for B1
B7: SGA1: yeast GST-HisX6 fusion protein on proteome chip (protein, UniProt P08019 1-549, looked up)
Glucoamylase, intracellular …: MARQKMFYNKLLGMLSVGFGFAWALENITIYEFDFGKGILDQSYGGVFSNNGPSQVQLRDAVLMNGTVVYDSNGAWDSSALEEWLQGQKKVSIEKIFENIGPSAVYPSISPGVVIASPSQTHPDYFYQWIRDSALTINSIVSHSAGPAIETLLQYLNVSFHLQRSNNTLGAGIGYTNDTVALGDPKWNVDNTAFTEDWGRPQNDGPALRSIAILKIIDYIKQSGTDLGAKYPFQSTADIFDDIVRWDLRFIIDHWNSSGFDLWEEVNGMHFFTLLVQLSAVDKSLSYFNASERSSPFVEELRQTRRDISKFLVDPANGFINGKYNYIVGTPMIADTLRSGLDISTLLAANTVHDAPSASHLPFDINDPAVLNTLHHLMLHMRSIYPINDSSKNATGIALGRYPEDVYDGYGFGEGNPWVLATCTASTTLYQLIYRHISEQHDLVVPMNNDCSNAFWSELVFSNLTTLGNDEGYLILEFNTPAFNQTIQKIFQLADSFLVKLKAHVGTDGELSEQFNKYTGFMQGAQHLTWSYTSFWDAYQIRQEVLQSL
modifications: GST-HisX6 tag
notes: as for B1
B8: MUM2: yeast GST-HisX6 fusion protein on proteome chip (protein, UniProt P38236 1-366, looked up)
Protein MUM2: MNYMAYDYDPQHSLETSFNNLAFHPHQQSQQQALYESGERNDARPGLMNTLGQASKMNNSMLPQGSSASPLTGQHSLNSTTNFNMPPSMNTYNYQNVPQASMRNTLNHNNIMNGATANDYWLDPMNNMTNNKDTNGNPNDSMSSMSNMTAKTSINSTAFKNSFVPFNHVTALSMNNVNSNEMNSNKDDRMEALEVELQIKESQIESLENEIQRLKKIFNEGLNYKQNEHKYEKENCHIPQTFELPASLEVIFRKLSSSLHAKEKELAETKENLESILTALALNPTNSVTKYGRYDAESIAHKMVVRLENLTNENKEMAKMLAYGRSKETQIELQLAKKENLELREKIASLEAHLASKESSKEDVAN
modifications: GST-His6 fusion tag
notes: as for B1

Tested on: PI(4)P liposomes
Assay: Yeast proteome chip probed with PI(4)P liposomes
Conditions: liposome binding signal on yeast proteome chip, Cy3-streptavidin detection

Row | Molecule | PI(4)P
1 | B1 | 8.06
2 | B2 | 16.55
3 | B3 | 16.55
4 | B4 | 43.98
5 | B5 | 43.98
6 | B6 | 87.31
7 | B7 | 41.15
8 | B8 | 90.15

Tested on: PI(3)P liposomes
Assay: Yeast proteome chip probed with PI(3)P liposomes
Conditions: liposome binding signal on yeast proteome chip, Cy3-streptavidin detection

Row | Molecule | PI(3)P
9 | B1 | 9.00
10 | B2 | 2.00
11 | B3 | 11.50
12 | B4 | 22.50
13 | B5 | 71.00
14 | B6 | −50.50
15 | B7 | 16.50
16 | B8 | 81.50

Tested on: PI(4,5)P2 liposomes
Assay: Yeast proteome chip probed with PI(4,5)P2 liposomes
Conditions: liposome binding signal on yeast proteome chip, Cy3-streptavidin detection

Row | Molecule | PI(4, 5)P2
17 | B1 | 3.70
18 | B2 | 17.85
19 | B3 | 34.40
20 | B4 | 34.84
21 | B5 | 37.23
22 | B6 | 44.85
23 | B7 | 6.75
24 | B8 | 38.76

Tested on: PI(3,4,5)P3 liposomes
Assay: Yeast proteome chip probed with PI(3,4,5)P3 liposomes
Conditions: liposome binding signal on yeast proteome chip, Cy3-streptavidin detection

Row | Molecule | PI(3, 4, 5)P3
25 | B1 | 26.89
26 | B2 | 18.68
27 | B3 | 28.12
28 | B4 | 40.05
29 | B5 | 27.45
30 | B6 | 13.05
31 | B7 | 26.55
32 | B8 | 63.34

Tested on: phosphatidylcholine (PC) liposomes
Assay: Yeast proteome chip probed with PC liposomes
Conditions: liposome binding signal on yeast proteome chip, Cy3-streptavidin detection
How it was run: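 Binding of arrayed yeast proteins to sonicated PC liposomes, with or without 5% (w/w) phosphoinositide, is scored by streptavidin fluorescence on the biotinylated lipid tracer.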

Row | Molecule | PC
33 | B1 | 31.70
34 | B2 | 54.00
35 | B3 | 45.78
36 | B4 | 42.26
37 | B5 | 37.86
38 | B6 | 39.33
39 | B7 | 52.83
40 | B8 | 46.66

Tested on: PI(3,4)P2 liposomes
Assay: Yeast proteome chip probed with PI(3,4)P2 liposomes
Conditions: liposome binding signal on yeast proteome chip, Cy3-streptavidin detection

Row | Molecule | PI(3, 4)P2
41 | B1 | 26.84
42 | B2 | 55.57
43 | B3 | 44.27
44 | B4 | 31.40
45 | B5 | 47.72
46 | B6 | 119.93
47 | B7 | 60.59
48 | B8 | 49.29
